Holding throughout (assay): fluorescence polarisation
Assay [1] has as its target fluorescent peptide corresponding to the SH3 binding motif of SepJ (Anabaena sp. strain PCC 7120).
Assay [2] has as its target SepJ peptide bearing proline-to-serine substitutions (Anabaena sp. strain PCC 7120).
Assay [3] concerns the target fluorescent peptide corresponding to the SH3 binding motif of FraC (Anabaena sp. strain PCC 7120).

1 substance from PMC4488944 can be followed below.

Bounds are passed on as bounds.

Consider “His-tagged SjcF1 (All1861 without transmembrane domain) (domain or fragment)”, for which the Kd in assay [1] was 39 µM; in assay [2], over 2000 µM; in assay [3] it was 12 µM.
